Data on two molecules can be found in patent US20230049152A1 (Genentech, published 2023).

The target of one assay is human CCR8 (human, UniProt P51685 1-355). The assay can be described thus: cell-based or functional assay.
For another assay, the target named is T1, P18A.
T1 construct: single alanine mutant of hCCR8; also called hCCR8 P18A
T1 receptor chain: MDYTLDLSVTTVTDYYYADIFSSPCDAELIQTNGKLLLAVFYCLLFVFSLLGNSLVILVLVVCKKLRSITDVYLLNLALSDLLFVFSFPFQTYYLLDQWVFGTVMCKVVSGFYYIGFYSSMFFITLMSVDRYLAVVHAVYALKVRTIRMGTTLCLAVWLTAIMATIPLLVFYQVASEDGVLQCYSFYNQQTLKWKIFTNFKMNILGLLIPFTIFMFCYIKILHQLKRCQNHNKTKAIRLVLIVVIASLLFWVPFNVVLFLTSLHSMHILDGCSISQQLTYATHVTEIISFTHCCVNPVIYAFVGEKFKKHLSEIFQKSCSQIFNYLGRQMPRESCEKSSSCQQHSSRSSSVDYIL
The assay can be described thus: flow cytometry, HEK293 transfected with hCCR8 P18A with C-terminal FLAG; sheet prints [huCCR8]=0.02 ug/ml.

The target of a further assay is T2, P24A.
T2 construct: single alanine mutant of hCCR8; also called hCCR8 P24A
T2 receptor chain: T1 receptor chain with A18P, P24A
The assay can be described thus: flow cytometry, HEK293 transfected with hCCR8 P24A with C-terminal FLAG; sheet prints [huCCR8]=0.02 ug/ml.

The next assay addresses T3, T13A.
T3 construct: single alanine mutant of hCCR8; also called hCCR8 T13A
T3 receptor chain: T1 receptor chain with T13A, A18P
The assay can be described thus: flow cytometry, HEK293 transfected with hCCR8 T13A with C-terminal FLAG; sheet prints [huCCR8]=0.02 ug/ml. The method, then: (§1) FIGS. 16A-16B depict the epitope maps for hu.Ab5.H13L1 (FIG. 16A) and hu.Ab4.H12L3 (FIG. 16B) mAbs.
(§2) To epitope map fucosylated hu.Ab5.H13L1, the binding to alanine point mutations in human CCR8 was analyzed by flow cytometry.
On the technique in general: A flow cytometer gives signals particle by particle.

In another assay the target is T4, F21A.
T4 construct: single alanine mutant of hCCR8; also called hCCR8 F21A
T4 receptor chain: T1 receptor chain with A18P, F21A
The assay can be described thus: flow cytometry, HEK293 transfected with hCCR8 F21A with C-terminal FLAG; sheet prints [huCCR8]=0.02 ug/ml. As to the method:
as §1, §2

Another assay deals with T5, D19A.
T5 construct: single alanine mutant of hCCR8; also called hCCR8 D19A
T5 receptor chain: T1 receptor chain with A18P, D19A
Kind of assay: flow cytometry, HEK293 transfected with hCCR8 D19A with C-terminal FLAG; sheet prints [huCCR8]=0.02 ug/ml. The method, then: as §1, §2

For a further assay, the target named is T6, Y15A.
T6 construct: single alanine mutant of hCCR8; also called hCCR8 Y15A
T6 receptor chain: T1 receptor chain with Y15A, A18P
Kind of assay: flow cytometry, HEK293 transfected with hCCR8 Y15A with C-terminal FLAG; sheet prints [huCCR8]=0.02 ug/ml.

Numbering of substitutions follows the chain as printed.

B1: hu.Ab4.H12L3 (antibody, human IgG1, kappa)
heavy: not shown
light: DYQMTQSPSSLSASVGDRVTITCQASQSISSYLSWYQQKPGKAPKLLIYKASTLASGVPSRFSGSGSGTDFTLTISSLQPEDFATYYCQQGYTSSNIDNIFGGGTKVEIKRTVAAPSVFIFPPSDEQLKSGTASVVCLLNNFYPREAKVQWKVDNALQSGNSQESVTEQDSKDSTYSLSSTLTLSKADYEKHKVYACEVTHQGLSSPVTKSFNRGEC
notes: fucosylated human IgG1; also called huCCR8-Ab4.H12L3.hIgG1; Ab4 variant
For the molecule B1, in the assay with human CCR8, the “Ligand Blocking Activity IC50, Ca2+ influx” value was 0.0579 µM.

B2: hu.Ab5.H13L1 (antibody, human IgG1, kappa)
heavy: not shown
light: DIQVTQSPSSLSASVGDRVTITCQASENIANALAWYQQKPGKPPKFLIYGASNLASGVPSRFSGSGSGTDFTFTISSLQPEDIATYYCQQAYYGNSFVEGTFGGGTKVEIKRTVAAPSVFIFPPSDEQLKSGTASVVCLLNNFYPREAKVQWKVDNALQSGNSQESVTEQDSKDSTYSLSSTLTLSKADYEKHKVYACEVTHQGLSSPVTKSFNRGEC
notes: fucosylated human IgG1; also called Ab5 variant
B2: the binding result with P18A, with P24A, with T13A, in the assay with F21A, with D19A and with Y15A was “binds” each time.
